Measurements from patent publication US20250121063A1, “COMPOSITIONS OF […] RESISTANCE TO P[…] RELATED METHODS OF USE” (priority 2023, published 2025).
Entries after “also recorded” stand apart in the source; their conditions may differ.

How the values were obtained:
P14 CD8+CD45.2+ T-cells = assay type: cell-based, mouse
B16-OVA melanoma = test: Adoptive transfer of shRNA-transduced OT-1 cells into mice bearing B16-OVA melanoma; assay type: in vivo, mouse; conditions: compared with shFF or HBSS
From the text: Referring to FIG. 1, this indicates a normal mouse CD8+ treated with a construct expressing: control short hairpin RNA (shFF) or short hairpin RNA against mouse PTGIR gene. OT-1 is an anti-OVA T cell receptor that recognizes ovalbumin epitope (OVA) antigen variant E1 ([…]) restricted by H2-Kb. Mouse T cells that constitutively express OT-1 (“OT-1 cells”) were transduced with a construct expressing short hairpin RNA against mouse Ptgir gene (“shPTGIR”) or control short hairpin RNA (“shFF”; against firefly luciferase).
At day 0, mice were inoculated with […] B16-OVA melanoma cells (these cells constitutively express the OVA protein and present OVA epitopes on cell surface MHC). On Day 7 mice received (i.v.) 1E6 adoptively transferred gene modified OT-1 cells or Hank's buffered saline solution (HBSS).
At day 0, mice inoculated with B16-OVA melanoma. On Day 7 mice received adoptively transferred, gene modified CD8+ cells on Day 7 or saline (HBSS).
Referring to FIG. 2, this example was performed in the same way as Example 2.

[1] = tested on: LCMV (Lymphocytic choriomeningitis) clone 13; conditions: mouse, in vivo

B1: shPTGIR (nucleic acid)
DNA: AGCACGAGAGGAUGAAGUUUACUAGUGAAGCCACAGAUGUAGUAAACUUCAUCCUCUCGUGCC
modifications: expressed or natural sequence
IFNγ and TNFα response to antigen stimulation (P14 CD8+CD45.2+ T-cells): capable of responding to antigen stimulation
tumor growth (B16-OVA melanoma; 1E6 gene modified OT-1 cells i.v. on Day 7 after B16-OVA inoculation): reduced tumor growth
survival (B16-OVA melanoma; mice with B16-OVA melanoma, OT-1 cells transferred Day 7): increased survival
LAG-3 expression [1]: lower LAG-3 expression
absolute abundance of transduced CD45.2 T-cells [1]: higher absolute abundance; also recorded: greater absolute numbers
expansion of adoptively transferred cells (CD45.2+) [1]: highly significant expansion
percentage of Tim-3 [1]: lower percentage of Tim-3
phenotypic markers of exhaustion [1]: reduced phenotypic markers of exhaustion
